Measured values from US20120149881A1 (Genentech, published 2012).
Where a chain is given by its changes, count along the chain named. “And” between values parts separate entries of the source, which are not always exact repeats. Equal values may be shown once.

Tests used:
[1] = target: T1, human IgE CH3-CH4-M1′/Fc fusion protein (human); experiment: SPR Biacore A100, M1′ immobilized
T1 construct: also called M1′ (immobilized)

[2] = target: T1, human IgE CH3-CH4-M1′/Fc fusion protein; experiment: SPR Biacore 2000, M1′-Fc immobilized
[3] = target: T2, human IgE with the M1′ sequence (long form of membrane IgE) expressed on transduced BJAB or Daudi cells (human, UniProt P01854 116-546); experiment: Scatchard, iodinated antibody on IgE/M1′ cells
T2 construct: Full-length heavy and light chains of the U266 IgE B cell receptor, retrovirally expressed; also called IgE/M1′; IgE-M1′

[4] = target: T3, cyno IgE/M1′ expressed on transduced Daudi cells (human IgE/primate M1′ cassette, cynomolgus) (cynomolgus monkey); experiment: Scatchard analysis on cells expressing cyno IgE/M1′
T3 construct: The construct is described as a 'human IgE/primate M1′ cassette'; also called Cyno M1′
T3 chain: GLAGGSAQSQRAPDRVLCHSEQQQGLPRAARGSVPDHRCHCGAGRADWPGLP

[5] = target: T2, human IgE with the M1′ sequence (long …); experiment: Scatchard analysis on cells expressing human IgE/M1′
Protocol: (§1) The BJAB or Daudi cells expressing various forms of IgE with or without M1′ (Human, Rhesus, Cyno) were prepared for binding in cold Binding buffer composed of base media, with 10 mM HEPES pH 7.4, and 2% FBS as well as 40 ug/ml human IgG. Cells are diluted to concentration of 1.7×10⁶ cells/ml, and kept on ice until they are added to the assay. The proteins/antibodies are iodinated with the Iodogen method. Various concentrations of cold protein are prepared in triplicate, using a 1:2 dilution starting with the saturation concentration and ending at a concentration of zero, with a total of 14 concentrations. Hot protein of a single concentration is added to all dilutions compete with the cold protein. Lastly the cells are added to the hot and cold protein mixture, 250,000 cells per sample were used. Assay is kept at 4° C. for 4 hours, shaking. Each sample is then collected and filtered on membrane, washed at least 3 times with binding buffer, allowed to dry and then counted for 1 minute using Perkin Elmer Wizard 1470 Auto Gamma Counter.

[6] = target: T4, rhesus IgE/M1′ expressed on transduced Daudi cells (human IgE/primate M1′ cassette, rhesus) (rhesus monkey); experiment: Scatchard analysis on cells expressing rhesus IgE/M1′
T4 construct: The construct is described as a 'human IgE/primate M1′ cassette'; also called Rhesus M1′
T4 chain: T3 chain with R38H

[7] = target: T1, human IgE CH3-CH4-M1′/Fc fusion protein; experiment: SPR Biacore 2000, IgG immobilized, M1′-Fc analyte
M1′ peptide 4 = target: T5, M1′ peptide 4 (human); experiment: ELISA on coated antigen, relative OD450/650
T5 peptide: SAQSQRAPDRVLCHS
Protocol: (§2) 15 peptides were generated spanning the sequence surrounding and including human M1′ (Clifford Quan) (FIG. 5A). Peptides were resuspended in either dH20 or 50% DMSO. […] 0.05% Tween-20, 10 ppm Proclin., 0.2% BgG, 0.25% Chaps, 5 mM EDTA, 0.35M NaCl]. […] Plates were then incubated for 2 hours at room temperature. Murine antibody plates were washed 3 times and then anti-mouse IgG1-Biotin (BD Biosciences (A85-1) #553441) was added (1:10,000, 100 μl per well) and incubated for 1 hour at RT. Following 3 washes, SA-HRP (BD Biosciences #554066) was added (1:20,000, 100 μl per well) and incubated for 1 hour. Human IgG1 antibody plates were washed as before and anti-hulgG.Fc-HRP (Jackson ImmunoResearch (#109-036-098)) was added (1:10,000, 100 μl per well) and incubated for 1 hour at RT. Once secondary incubations were complete, plates were washed 6 times and TMB substrate (BD OptEIA #555214) was added (100 μl per well). The substrate-HRP reaction was stopped with 1M H3PO4 after ˜4 minutes. Plates were then read at 450/650. Data was represented as relative OD (OD₄₅₀/CD650).

[8] = target: T2, human IgE with the M1′ sequence (long …); experiment: Scatchard Human M1' (nM), column Mean of exp. 2
Protocol: as §1

[9] = target: T2, human IgE with the M1′ sequence (long …); experiment: Scatchard Human M1' (nM), column Mean of exp. 3
Protocol: as §1

[10] = target: T2, human IgE with the M1′ sequence (long …); experiment: Scatchard Human M1' (nM), overall Mean of three experiments
Protocol: as §1

[11] = target: T2, human IgE with the M1′ sequence (long …); experiment: competitive ECL binding on BJAB-IgE/M1′ cells vs biotinylated 26A11 or 47H4, 1st IC50 column
[12] = target: T2, human IgE with the M1′ sequence (long …); experiment: competitive ECL binding on BJAB-IgE/M1′ cells vs biotinylated 26A11 or 47H4, 2nd IC50 column
[13] = target: T2, human IgE with the M1′ sequence (long …); experiment: number printed in the titration panel; FIG. 3M calls these numbers 'Scatchard Results' (BJAB-Long cells)
Protocol: (§3) In addition to relative affinity determinations by antibody titration and FACs detection, we also determined affinities of selected anti-MP antibodies to BJAB cell lines expressing IgE long form using Scatchard analysis. BJAB-Long cells were prepared for binding in cold Binding buffer composed of base media, with 10 mM HEPES pH 7.4, and 2% FBS as well as 40 μg/ml human IgG. Cells were diluted to a concentration of 1.7×10⁶ cells/ml, and kept on ice until added to the assay. The antibodies were iodinated with Iodogen method. Various concentrations of unlabelled antibody were prepared in triplicate, using a 1:2 dilution starting with the saturation concentration and ending at a concentration of zero, with a total of 14 concentrations. Iodinated antibody of a single concentration was added to all dilutions of the competitor unlabelled antibody. Lastly 250,000 BJAB-Long cells were added to each mixture of iodinated and unlabelled antibody. The samples were incubated at 4° C. for 4 hours, shaking. Each sample was then collected and filtered on a membrane, washed at least 3 times with binding buffer, allowed to dry and then measured for 1 minute using a Perkin Elmer Wizard 1470 Auto Gamma Counter.

M1′ peptide 8 = target: T6, M1′ peptide 8 (human); experiment: ELISA on coated antigen, relative OD450/650
T6 peptide: PRAAGGSVPHPRCH
Protocol: as §2

M1′ peptide 7 = target: T7, M1′ peptide 7 (human); experiment: ELISA on coated antigen, relative OD450/650
T7 peptide: GQQQGLPRAAGGSVP
Protocol: as §2

[14] = target: T2, human IgE with the M1′ sequence (long …); experiment: Scatchard Human M1' (nM), column Mean of exp. 1
Protocol: as §3, with “Iodinated antibody of a single concentration was added to all dilutions of the competitor unlabelled antibody. Lastly 250,000 BJAB-Long cells were added to each mixture of iodinated and unlabelled antibody. The samples were incubated at 4° C. for 4 hours, shaking.” left out
The BJAB or Daudi cells expressing various forms of IgE with or without M1′ (Human, Rhesus, Cyno) were prepared for binding in cold Binding buffer composed of base media, with 10 mM HEPES pH 7.4, and 2% FBS as well as 40 ug/ml human IgG. […] Each sample is then collected and filtered on membrane, washed at least 3 times with binding buffer, allowed to dry and then counted for 1 minute using Perkin Elmer Wizard 1470 Auto Gamma Counter.

[15] = target: T2, human IgE with the M1′ sequence (long …); experiment: Scatchard Human M1' (nM), overall Mean of two experiments
Protocol: as §1

[16] = target: T2, human IgE with the M1′ sequence (long …); experiment: Scatchard Human M1' (nM), column Measured; iodinated antibody on cells expressing human IgE/M1'
Protocol: as §1

T2 sequence (P01854 116-546 I515L limits assumed): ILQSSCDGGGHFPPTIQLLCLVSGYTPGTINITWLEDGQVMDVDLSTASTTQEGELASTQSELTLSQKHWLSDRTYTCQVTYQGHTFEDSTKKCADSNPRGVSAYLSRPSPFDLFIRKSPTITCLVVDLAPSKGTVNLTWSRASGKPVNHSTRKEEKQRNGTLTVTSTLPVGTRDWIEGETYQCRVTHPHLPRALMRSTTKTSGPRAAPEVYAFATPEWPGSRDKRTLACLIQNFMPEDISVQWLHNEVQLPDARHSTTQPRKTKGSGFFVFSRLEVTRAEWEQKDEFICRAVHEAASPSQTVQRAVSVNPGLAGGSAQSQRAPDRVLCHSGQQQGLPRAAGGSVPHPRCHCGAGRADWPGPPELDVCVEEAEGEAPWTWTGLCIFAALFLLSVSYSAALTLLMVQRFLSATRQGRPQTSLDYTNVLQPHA
T1 sequence (chain, as listed by the source limits assumed): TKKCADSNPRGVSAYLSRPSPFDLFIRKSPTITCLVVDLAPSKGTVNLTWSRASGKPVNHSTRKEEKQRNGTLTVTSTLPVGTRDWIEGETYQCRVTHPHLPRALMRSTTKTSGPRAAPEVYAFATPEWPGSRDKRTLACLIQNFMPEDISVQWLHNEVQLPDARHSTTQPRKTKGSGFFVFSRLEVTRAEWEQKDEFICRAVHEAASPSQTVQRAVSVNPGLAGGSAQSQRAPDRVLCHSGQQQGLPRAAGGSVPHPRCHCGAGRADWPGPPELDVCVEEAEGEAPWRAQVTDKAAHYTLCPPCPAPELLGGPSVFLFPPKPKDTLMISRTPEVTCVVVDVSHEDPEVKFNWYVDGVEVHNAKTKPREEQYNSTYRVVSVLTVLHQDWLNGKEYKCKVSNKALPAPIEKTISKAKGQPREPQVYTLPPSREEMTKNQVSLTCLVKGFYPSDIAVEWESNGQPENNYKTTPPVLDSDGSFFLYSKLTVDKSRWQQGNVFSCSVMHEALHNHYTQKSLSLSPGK

B1: murine anti-IgE/M1′ antibody 47H4 (antibody, V domains shown)
VH: EVKLVESGGGLVQPGGSRKLSCAASGFTFSDYGMAWVRQAPGKGPEWVAFISDLAYTIYYADTVTGRFTISRENAKNTLYLEMSSLRSEDTALYYCARDNWDAMDYWGQGTSVTVSS
VL: DIVLTQTPLSLPVSLGDQASISCRSSQSLVHNNGNTYLHWYLQKPGQSPKLLIYKVSNRFSGVPDRFSGSGSGTDFTLKISRLEAEDLGVYFCSQNTLVPWTFGGGTKVEIKR
notes: mIgG1 hybridoma antibody; also called mu47H4; 47H4 mIgG1
Kd [1]: 5.6 nM | Kd [2]: 12 nM | Kd [3]: 0.4 nM | Kd [4]: 0.97 nM | Kd [5]: 0.79 nM | Kd [6]: 0.77 nM | Kd [7]: 1.5 nM | binding result (M1′ peptide 4): binds | Kd [8]: 0.54 nM | Kd [9]: 0.39 nM | Kd [10]: 0.57 nM | IC50 [11]: 62 nM | IC50 [12]: 57 nM | Kd [13]: 0.39 nM

B2: murine anti-IgE/M1′ antibody 26A11 (antibody, V domains shown)
VH: EVQLQQSGPELVKPGASVKMSCKASGYTFTDYYMMWVKQSHGKSLEWIGDINPNNYDTSYNQKFKGKATLTVDKSSSTAYIQLNSLTSEDSAVYYCASKAYWGQGTLVTVSA
VL: DIQMTQTTSSLSASLGDRVTITCRSSQDISNSLNWYQQKPDGPVKLLIYSTSRLHSGVPSRFSGSGSGTDYSLTISNLEQEDLATYFCQQGHTLPWTFGGGTKVEIKR
notes: mIgG1 hybridoma antibody; also called mu26A11; 26A11 mIgG1
Kd [1]: 0.3 nM | Kd [3]: 1.6 nM | Kd [5]: 2.3 nM | Kd [7]: 5.1 nM | binding result (M1′ peptide 8): binds | binding result (M1′ peptide 7): binds | Kd [14]: 2.14 nM | Kd [8]: 1.75 nM | Kd [15]: 1.94 nM | IC50 [11]: 12 nM | Kd [16]: 1.68 nM and 2.59 nM and 1.2 nM
